According to patent publication US20150087584A1 (COUNCIL OF SCIENTIFIC AND INDUSTRIAL RESEARCH, published 2015):

Molecular target: bovine trypsin (bovine, UniProt P00760 24-246)
Assay: cell-based or functional assay

bovine trypsin, sequence (P00760 24-246): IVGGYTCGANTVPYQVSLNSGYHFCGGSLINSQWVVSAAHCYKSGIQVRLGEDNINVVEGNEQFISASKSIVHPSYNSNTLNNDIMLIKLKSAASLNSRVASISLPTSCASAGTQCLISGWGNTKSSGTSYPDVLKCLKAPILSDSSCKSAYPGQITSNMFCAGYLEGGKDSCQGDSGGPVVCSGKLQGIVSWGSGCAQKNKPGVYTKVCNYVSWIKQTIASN

Binder	IC50 of inhibition of bovine trypsin activity (BApNA substrate) [µM]
QPICTNSSAGLKGCNYYNADGTFICEGESDPNHPKACPKNCDPNIAYSLC (other) [inhibitory repeat domain IRD-9 of Capsicum annuum Pin-II proteinase inhibitors (CanPIs)]	~2.2
NRLCTNCCAGRKGCNYYSADGTFICEGESDPNNPKACPRNCDPNIAYSLC (other) [inhibitory repeat domain IRD-12 of Capsicum annuum Pin-II proteinase inhibitors (CanPIs)]	~65
